The term Km denotes the concentration of substrate that gives half-maximal velocity.

This series has as its system O=[N+]([O-])c1ccc(Cl)c([N+](=O)[O-])c1. The experiment in a line: purified protein. The note with it: 50 mM GSH, acetate-phosphate buffer pH 7.5 (b1, b25; b45 prints optimum pH 7.0), 35 °C.

Regarding PiGSTd1 (Plodia interpunctella), the Km is recorded as 0.2292 ± 0.01805 mM.

The values are drawn from PMC8427598, “Identification and Characterization of an Antennae-Specific Glutathione S-Transferase From the Indian Meal Moth” (Frontiers in Physiology, 2021).
